According to US20240067751A1 (KEYMED BIOSCIENCES, published 2024):

How the values were obtained:
[1] = biological target: T1, human MASP-2 D4-6 recombinant protein (human, UniProt O00187 298-686); assay: ELISA, antigen coated, chimeric IgG titrated, anti-human Fc-HRP
T1 construct: his6 tag fused at the N-terminus, made in HEK293E; also called enzymatic activity domains CCP1-CCP2-SP of human MASP-2

[2] = biological target: T2, Cynomolgus monkey MASP-2 D4-6 recombinant protein (Cynomolgus monkey, UniProt O00187 298-686 (human entry), limits assumed); assay: as above
T2 construct: Made 'similarly' to the human protein (N-terminal his6 tag)

[3] = biological target: T3, mouse MASP-2 D4-6 recombinant protein (mouse, UniProt Q91WP0 298-685); assay: as above
T3 construct: Made 'similarly' to the human protein (N-terminal his6 tag)

[4] = biological target: T1, human MASP-2 D4-6 recombinant protein; assay: SPR Biacore T200, antibody on Protein A chip, antigen as analyte, 1:1 fit
Experimental: (§1) Surface plasmon resonance technology (SPR/Biacore T200) was used to capture 0.1 μg/ml of the antibody on the surface of the Protein A chip, with a capture time of 40 seconds and a flow rate of 10 μl/min. The chip was washed with buffer until the baseline leveled off, then gradient-diluted antigen was flowed through the chip at the flow rate of 30 μl/min, with a binding time of 120 sec and a dissociation time of 600 sec. The equilibrium dissociation constant (KD) was obtained by fitting in Langmuir 1:1 kinetics mode.

[5] = biological target: T2, Cynomolgus monkey MASP-2 D4-6 …; assay: as above
Experimental: as §1

[6] = biological target: T3, mouse MASP-2 D4-6 recombinant protein; assay: as above
Experimental: as §1

[7] = biological target: T4, rat MASP-2 D4-6 recombinant protein (rat, UniProt Q9JJS8 298-685); assay: as above
T4 construct: Made 'similarly' to the human protein (N-terminal his6 tag)
Experimental: as §1

[8] = biological target: T1, human MASP-2 D4-6 recombinant protein; assay: SPR Biacore T200, Flag-tagged Fab captured via anti-Flag antibody on Protein A chip, antigen as analyte, 1:1 fit
Experimental: (§2) The surface plasmon resonance (SPR/Biacore T200) technique was used to capture the anti-Flag antibody with Protein A chip. 10 μg/ml purified Fab antibody containing Flag tag was captured on the chip surface, with a capture time of 40 sec and a flow rate of […]. The chip was washed with buffer until the baseline leveled off, then gradient-diluted MASP-2 antigens were injected as the analytes successively to determine the affinity between Fab and different species antigens. The data were fitted by Biacore T200 Evaluation software 3.1 software in Langmuir 1:1 kinetics mode.

[9] = biological target: T2, Cynomolgus monkey MASP-2 D4-6 …; assay: as above
Experimental: as §2

[10] = biological target: T3, mouse MASP-2 D4-6 recombinant protein; assay: as above
Experimental: as §2

[11] = biological target: T4, rat MASP-2 D4-6 recombinant protein; assay: as above
Experimental: as §2

[12] = biological target: T4, rat MASP-2 D4-6 recombinant protein; assay: ELISA, antigen coated, chimeric IgG titrated, anti-human Fc-HRP

T3 sequence (Q91WP0 other isoform, or with tags, fused parts or gaps limits assumed): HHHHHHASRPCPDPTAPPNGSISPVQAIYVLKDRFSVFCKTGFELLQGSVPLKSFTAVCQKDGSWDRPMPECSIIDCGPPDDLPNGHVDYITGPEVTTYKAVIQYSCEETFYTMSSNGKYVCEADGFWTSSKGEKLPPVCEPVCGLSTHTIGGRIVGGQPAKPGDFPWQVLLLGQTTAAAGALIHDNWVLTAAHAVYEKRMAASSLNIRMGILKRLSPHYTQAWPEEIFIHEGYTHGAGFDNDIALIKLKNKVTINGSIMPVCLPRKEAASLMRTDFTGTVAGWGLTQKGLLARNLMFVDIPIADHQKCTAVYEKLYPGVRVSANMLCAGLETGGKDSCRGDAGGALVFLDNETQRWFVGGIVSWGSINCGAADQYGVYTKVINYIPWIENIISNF
T2 sequence (O00187 other isoform, or with tags, fused parts or gaps limits assumed): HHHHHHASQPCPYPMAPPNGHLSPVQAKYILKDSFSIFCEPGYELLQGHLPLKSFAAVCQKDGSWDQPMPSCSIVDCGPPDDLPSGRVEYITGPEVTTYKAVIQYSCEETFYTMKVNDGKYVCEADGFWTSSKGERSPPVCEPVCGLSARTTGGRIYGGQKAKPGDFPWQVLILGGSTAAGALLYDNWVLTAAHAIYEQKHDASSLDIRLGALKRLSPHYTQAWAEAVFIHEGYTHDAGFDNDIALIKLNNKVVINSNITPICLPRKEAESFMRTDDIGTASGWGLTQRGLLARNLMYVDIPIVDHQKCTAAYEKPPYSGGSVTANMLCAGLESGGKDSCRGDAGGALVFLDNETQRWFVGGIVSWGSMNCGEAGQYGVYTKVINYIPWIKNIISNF
T4 sequence (Q9JJS8 other isoform, or with tags, fused parts or gaps limits assumed): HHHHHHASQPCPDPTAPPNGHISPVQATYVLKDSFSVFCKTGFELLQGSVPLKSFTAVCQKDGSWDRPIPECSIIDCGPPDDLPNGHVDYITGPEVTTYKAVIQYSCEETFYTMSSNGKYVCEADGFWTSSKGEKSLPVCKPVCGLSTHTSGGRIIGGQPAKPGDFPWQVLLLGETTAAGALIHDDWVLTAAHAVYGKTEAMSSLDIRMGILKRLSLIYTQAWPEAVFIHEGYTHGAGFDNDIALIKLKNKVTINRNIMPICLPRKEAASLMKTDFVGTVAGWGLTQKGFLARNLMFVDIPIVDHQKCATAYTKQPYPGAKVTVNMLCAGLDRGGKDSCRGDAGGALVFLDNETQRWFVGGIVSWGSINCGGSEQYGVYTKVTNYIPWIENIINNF
T1 sequence (O00187 other isoform, or with tags, fused parts or gaps limits assumed): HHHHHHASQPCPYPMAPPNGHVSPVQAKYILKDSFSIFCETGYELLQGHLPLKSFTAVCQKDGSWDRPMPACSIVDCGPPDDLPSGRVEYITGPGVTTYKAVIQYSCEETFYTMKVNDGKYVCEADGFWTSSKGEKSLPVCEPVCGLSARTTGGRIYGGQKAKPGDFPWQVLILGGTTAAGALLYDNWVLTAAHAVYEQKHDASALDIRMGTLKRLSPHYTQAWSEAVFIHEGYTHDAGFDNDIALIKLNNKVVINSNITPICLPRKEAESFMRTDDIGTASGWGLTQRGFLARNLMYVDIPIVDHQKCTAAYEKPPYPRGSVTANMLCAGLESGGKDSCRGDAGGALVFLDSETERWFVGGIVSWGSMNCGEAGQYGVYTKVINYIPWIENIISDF

B1: chimeric antibody 4F18 (antibody, V domains shown)
VH: EVQLQESGPGLVKPSQSLSLACTVTGYSITSDYAWHWIRQFPGNKLEWMGFISYSGRTNYNPPLTSRISITRDTSKNQFFLQLNSVTTEDTATYYCARSYDYWFGYWGQGTLVTVSA
VL: NVLMTQTPLSLPVSLGDQASISCRSSQSLVHSNGNTYLEWYMQKPGQSPKLLIYTVSRRFSGVPDRFSGSGSGTDFTLKISRVEAEDLGVYYCFQGSHVPVTFGAGTKLELK
notes: to be rechecked
- EC50 [1]: 0.004 nM
- EC50 [2]: 0.003 nM
- EC50 [3]: 0.287 nM
- Kd [4]: 0.108 nM
- Kd [5]: 24.8 nM
- Kd [6]: 218 nM

B2: chimeric antibody 28O14 (antibody, V domains shown)
VH: QVQLQQSGTELARPGASVRMSCKASGYTFRSHTMHWVKQRPGQGLEWIGYINPSTGYINYNQKFKDKATLTADKSSSTAYMQLSSLTSEDSAVYYCARSNYSYYYGMDYWGQGTSVTVSS
VL: DIVMTQSHKFMSTSVGDRVTITCKASQDVNTAVAWYQQKPGQSPKLLIYSASYRYTGVPDRFTGSGSGTDFTFTISSLQAEDLAVYYCQQHYNIPLTFGAGTKLELK
- EC50 [1]: 0.033 nM
- EC50 [2]: 0.043 nM
- Kd [4]: 0.09 nM
- Kd [5]: 0.01 nM
- Kd [6]: 767 nM
- Kd [7]: 162 nM

B3: Fab antibody 14F11 (Fab, V domains shown)
VH: QVQLQQSGPQLLRPGASVKISCKASGFSFTNHWIHWVKQRPGQGLEWIGMIDPSDSETGLNQKFRDKATLTVDKSSSTAYMHLNSPTSEDSAVYYCARLGIHDGYYIYAMDFWGQGTSVTVSS
VL: NIVMTQSPKSMSMSVGERVTLSCKASENVGTYVSWYQQKPEQSPKLLIYGASNRYTGVPDRFTGSGSATDFTLTISSVQAEDLADYHCGQSYSYPLTFGAGTKLELK
notes: Purified murine Fab with Flag tag from the phage display library; also called mAb 14F11
- Kd [8]: 0.172 nM
- koff [8]: 0.000163 s⁻¹
- kon [8]: 948000 M⁻¹ s⁻¹
- Kd [9]: 4.66 nM
- Kd [10]: 18 nM
- koff [10]: 1.16 s⁻¹
- kon [10]: 6.44e+07 M⁻¹ s⁻¹
- Kd [11]: 0.546 nM
- koff [11]: 0.00182 s⁻¹
- kon [11]: 3.34e+06 M⁻¹ s⁻¹

B4: chimeric antibody 10L3 (antibody, V domains shown)
VH: DVQLQESGPGLVKPSQSLSLTCTVTGYSITSDYAWNWIRQFPGNKLEWMGYISYSGRTSYNPSLKSRISITRDTSKNQFFLQLNSVTTEDTATYYCAKLGGGHGMDYWGQGTSVTVSS
VL: IVMTQSQKFMSTSVGDRVSVTCKASQNVDTNVAWYQQKPGQSPKALIYSASYRYSGVPDRFTGSGSGTDFTLTISNVQSEDLAEYFCLQYNSYLTFGSGTKLELK
- EC50 [1]: 0.022 nM
- EC50 [2]: 0.016 nM
- EC50 [3]: 30.9 nM
- EC50 [12]: 30.2 nM
- Kd [4]: 0.07 nM
- Kd [5]: 1.29 nM
- Kd [6]: 214 nM

B5: chimeric antibody 3B9 (antibody, V domains shown)
VH: DVQLQESGPGLVRPSQSLSLTCTVTGYSITSDYAWNWIRQFPGNKLEWMGYISYSGRTSYNPSLKSRLSITRDTSKNQFFLQLNSVSSADTATYYCAIISTAVDFDYWGQGTTLTVSS
VL: QTVLTQSPAIMSASLGERVTMTCTASSSVSSSYLLWYQQKPGSSPKLWIYSTSKLASGVPVRFSGSGSGTSYSLTISSMEADDAATYYCLQYNRSPLTFGAGTKLELK
- EC50 [1]: 0.025 nM
- EC50 [2]: 0.038 nM
- EC50 [3]: 4.39 nM
- EC50 [12]: 1.62 nM
- Kd [4]: 0.067 nM
- Kd [5]: 0.051 nM
- Kd [6]: 476 nM
- Kd [7]: 1040 nM

B6: chimeric antibody 16A17 (antibody, V domains shown)
VH: DVQLQESGPGLVKPSQSLSLTCTVTGYSITSDYAWKWIRQFPGNKLEWMGYISYSGSTSYHPSLKGRISITRDTSKNQFFLQLNSVTADDTATYYCAILGYYAMDYWGQGTSVTVSS
VL: DIVMTQSQKFMSTSVGDRVSITCKASQNVRVDVAWYQQKSGQSPRALIYLASNRHTGVPDRFTGSGSGTDFTLTITNVQSEDLADYFCPQHWSYPLTFGGGTKLEIK
- EC50 [1]: 0.014 nM
- EC50 [2]: 0.014 nM
- EC50 [3]: 1.97 nM
- EC50 [12]: 4.3 nM
- Kd [4]: 0.008 nM
- Kd [5]: 0.063 nM
- Kd [6]: 487 nM

B7: Fab antibody 16B11 (Fab, V domains shown)
VH: QMQLQESGPGLVKPSQSLSLTCTVTGYSITSDYAWNWIRQFPGNKLEWMGYISYSGRTSYNPSLKSRISITRDTSKNQFFLQLNSVTTEDTATYYCARHYGDYWGQGTTLTVSS
VL: DIVMTQSQKLMSTSVGDRVSVTCKASQNVGTNVAWYQQKPGQSPKALIYSASYRNSGVPDRFTGSGSGTDFTLTISNVQSEDLAEYFCQQFNTNPLTFGSGTKLEIK
notes: Purified murine Fab with Flag tag from the phage display library; also called mAb 16B11
- Kd [8]: 0.0407 nM
- koff [8]: 8.75e-05 s⁻¹
- kon [8]: 2.15e+06 M⁻¹ s⁻¹
- Kd [9]: 0.109 nM
- koff [9]: 0.000181 s⁻¹
- kon [9]: 1.66e+06 M⁻¹ s⁻¹
- Kd [10]: 1.76 nM
- koff [10]: 0.00811 s⁻¹
- kon [10]: 4.61e+06 M⁻¹ s⁻¹
- Kd [11]: 5.06 nM
- koff [11]: 0.00931 s⁻¹
- kon [11]: 1.84e+06 M⁻¹ s⁻¹

B8: chimeric antibody 1B2 (antibody, V domains shown)
VH: DVQLQESGPGLVKPSQSLSLTCTVTGYSITSDYAWNWIRQFSGDKLEWMGYISYSGSTSYNPSLKSRISITRDTSKNQFFLHLSSVTTEDTATYFCARYWGDYWGHGTTLTVSS
VL: DSVMTQSQKFMSTSVGDRVSVTCKASHNVGTNVAWFQQKPGQSPKGLIYSASYRSSGVPDRFTGSGSGTDFTLTISNVQSEDLAEYFCLQYNSNPLTFGGGTKLEVK
- EC50 [1]: 0.015 nM
- EC50 [2]: 0.014 nM
- EC50 [3]: 0.947 nM
- EC50 [12]: 1.44 nM
- Kd [4]: 0.002 nM
- Kd [5]: 0.078 nM
- Kd [6]: 632 nM

B9: chimeric antibody 25L15 (antibody, V domains shown)
VH: KVKLVESGGDLVKPGGSLKISCAASGFTFSNYAMSWIRQTPDKRLEWVATVSSGGPYTYYPDSVKGRFTISRDNAENTLYLQMSSLRSDDTAIYYCARQIYSDYDVTYWGQGTLVTVSA
VL: QIVLSQSPAILSASPGETVTMTCRVSSSVSYMYWLQQKPGSSPKPWIYATSNLASGVPARFSGSGSGTSYSLTITRVEAEDAATYYCQQWSFRPWTFGGGTKLEIK
- EC50 [1]: 0.012 nM
- EC50 [2]: 0.008 nM
- EC50 [3]: 0.023 nM
- EC50 [12]: 0.021 nM
- Kd [4]: 0.12 nM
- Kd [5]: 0.92 nM
- Kd [6]: 499 nM
- Kd [7]: 167 nM
